Earlier results, collected in publication PMC5650667.

Key:
[1] = molecular target: RXFP2 (Homo sapiens) (UniProt Q8WXD0)
[2] = molecular target: RXFP4 (Homo sapiens) (UniProt Q8TDU9)
[3] = molecular target: TRH1 receptor (Homo sapiens) (UniProt P34981); assay: radioligand binding
Chain of UniProt P34981 (P34981 whole entry): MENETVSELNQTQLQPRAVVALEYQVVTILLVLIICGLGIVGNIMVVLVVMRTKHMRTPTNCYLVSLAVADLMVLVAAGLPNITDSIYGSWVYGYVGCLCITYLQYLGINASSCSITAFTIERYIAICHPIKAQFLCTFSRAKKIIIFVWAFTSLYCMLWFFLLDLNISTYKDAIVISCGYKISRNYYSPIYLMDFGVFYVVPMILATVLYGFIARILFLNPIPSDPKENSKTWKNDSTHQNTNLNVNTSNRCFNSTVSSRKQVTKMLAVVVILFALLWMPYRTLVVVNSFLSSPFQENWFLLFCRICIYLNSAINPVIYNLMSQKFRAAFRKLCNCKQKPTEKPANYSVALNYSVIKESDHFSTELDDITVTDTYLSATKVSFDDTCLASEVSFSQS

Chain of UniProt Q8TDU9 (Q8TDU9 whole entry): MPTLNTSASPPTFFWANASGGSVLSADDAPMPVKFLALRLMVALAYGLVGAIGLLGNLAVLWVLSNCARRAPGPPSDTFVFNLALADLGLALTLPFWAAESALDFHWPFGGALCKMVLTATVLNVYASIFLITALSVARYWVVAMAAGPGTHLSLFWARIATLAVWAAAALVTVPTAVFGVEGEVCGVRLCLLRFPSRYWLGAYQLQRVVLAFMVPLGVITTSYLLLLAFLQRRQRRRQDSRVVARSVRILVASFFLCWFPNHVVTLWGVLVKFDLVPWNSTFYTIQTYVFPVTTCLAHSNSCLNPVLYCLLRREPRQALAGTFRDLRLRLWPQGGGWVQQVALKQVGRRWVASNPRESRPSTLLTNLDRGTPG
Chain of UniProt Q8WXD0 (Q8WXD0 whole entry): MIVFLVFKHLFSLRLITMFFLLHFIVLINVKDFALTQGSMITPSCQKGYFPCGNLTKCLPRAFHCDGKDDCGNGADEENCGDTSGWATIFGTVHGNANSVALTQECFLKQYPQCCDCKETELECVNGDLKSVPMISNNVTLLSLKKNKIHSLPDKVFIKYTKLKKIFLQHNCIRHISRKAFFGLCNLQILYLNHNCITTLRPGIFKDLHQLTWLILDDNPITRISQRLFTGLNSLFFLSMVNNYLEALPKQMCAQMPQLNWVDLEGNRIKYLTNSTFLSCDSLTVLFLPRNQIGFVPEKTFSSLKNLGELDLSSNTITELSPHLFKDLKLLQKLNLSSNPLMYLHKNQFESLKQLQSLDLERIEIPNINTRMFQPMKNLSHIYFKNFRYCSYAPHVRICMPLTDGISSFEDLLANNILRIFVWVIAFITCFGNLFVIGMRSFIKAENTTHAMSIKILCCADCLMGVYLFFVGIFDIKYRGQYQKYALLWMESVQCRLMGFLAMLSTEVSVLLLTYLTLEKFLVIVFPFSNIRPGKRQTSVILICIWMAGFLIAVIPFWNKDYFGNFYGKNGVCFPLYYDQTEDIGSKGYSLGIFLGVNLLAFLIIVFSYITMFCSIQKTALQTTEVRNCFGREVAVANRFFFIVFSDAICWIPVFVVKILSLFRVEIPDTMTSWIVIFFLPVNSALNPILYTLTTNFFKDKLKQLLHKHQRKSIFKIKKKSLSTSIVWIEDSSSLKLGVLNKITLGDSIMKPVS

INSL3 (from UniProt P51460)
Kd [1]: 1 nM

INSL5 (from UniProt Q9Y5Q6)
Kd [2]: 5 nM

TRH (from UniProt P20396)
Kd [3]: 13 nM
